The chains are these.
B1: Circadian clock oscillator protein KaiC (Thermosynechococcus elongatus (strain BP-1)), Q79V60 (parent)
chain: MTNLPEHQSSPTEQSSAEVKKIPTMIEGFDDISHGGLPQGRTTLVSGTSGTGKTLFAVQFLYNGITIFNEPGIFVTFEESPQDIIKNALSFGWNLQSLIDQGKLFILDASPDPDGQEVAGDFDLSALIERIQYAIRKYKATRVSIDSVTAVFQQYDAASVVRREIFRLAFRLKQLGVTTIMTTERVDEYGPVARFGVEEFVSDNVVILRNVLEGERRRRTVEILKLRGTTHMKGEYPFTINNGINIFPLGAMRLTQRSSNVRVSSGVKTLDEMCGGGFFKDSIILATGATGTGKTLLVSKFLETGCQQGERALLFAYEESRAQLSRNASSWGIDFEELERRGLLRIICAYPESAGLEDHLQIIKSEIADFKPSRVAIDSLSALARGVSNNAFRQFVIGVTGFAKQEEITGFFTNTTDQFMGSNSITESHISTITDTILLLQYVEIRGEMSRAINVFKMRGSWHDKGIREYVITEKGAEIRDSFRNFEGIISGTPTRISVDEKTELARIAKGMQDLESE
partner: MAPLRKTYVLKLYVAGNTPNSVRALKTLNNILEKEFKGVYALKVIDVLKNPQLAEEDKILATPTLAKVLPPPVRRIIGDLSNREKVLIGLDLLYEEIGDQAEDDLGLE
B2: Circadian clock oscillator protein KaiC (Thermosynechococcus elongatus (strain BP-1)), Q79V60 (parent)
chain: B1 chain
partner: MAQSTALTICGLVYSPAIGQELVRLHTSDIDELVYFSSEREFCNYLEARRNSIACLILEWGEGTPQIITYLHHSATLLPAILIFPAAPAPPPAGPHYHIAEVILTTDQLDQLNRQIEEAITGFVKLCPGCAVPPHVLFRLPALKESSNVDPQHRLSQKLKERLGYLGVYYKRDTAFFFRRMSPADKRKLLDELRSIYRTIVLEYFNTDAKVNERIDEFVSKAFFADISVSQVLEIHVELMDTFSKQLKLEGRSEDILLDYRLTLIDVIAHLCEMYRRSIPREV

In one test the parent is B1. Conditions: with kaib_thevb kaiB.
As to T432A, the “effect of a mutation on the interaction” value is recorded as “disrupting interaction”.

The variants in a further test derive from B2. Conditions: with kaia_thevb kaiA.
As to T432A, the “effect of a mutation on the interaction” value was “decreasing interaction”.
